From the Immune Epitope Database (IEDB)

Experiments:
HLA-A*02:03 = assay: IEDB peptide-MHC binding, purified MHC/competitive/radioactivity; ≥ and ≤ were set here for values at or beyond the usual limits of such assays
HLA-A*02:06 = assay: as above
HLA-A*02:02 = assay: as above
HLA-A*02:01 [1] = assay: as above
HLA-A*68:02 = assay: IEDB peptide-MHC binding, cellular MHC/competitive/fluorescence; ≥ and ≤ were set here for values at or beyond the usual limits of such assays
HLA-A*02:01 [2] = assay: as above; settings: source organism: Vaccinia virus WR
[3] = source organism: Hepacivirus hominis
[4] = source organism: Vaccinia virus WR

Sequence	IC50 (HLA-A*02:03; [3]) [nM]	IC50 (HLA-A*02:06; [3]) [nM]	IC50 (HLA-A*02:02; [3]) [nM]	IC50 (HLA-A*02:01 [1]; [3]) [nM]	IC50 (HLA-A*68:02; [3]) [nM]	IC50 (HLA-A*02:03; [4]) [nM]	IC50 (HLA-A*02:06; [4]) [nM]	IC50 (HLA-A*02:02; [4]) [nM]	IC50 (HLA-A*68:02; [4]) [nM]	IC50 (HLA-A*02:01 [1]; [4]) [nM]	further results
SLVTSFLLM											IC50 (HLA-A*02:03; source organism: SARS-CoV1): 49 nM; IC50 (HLA-A*02:06; source organism: SARS-CoV1): 257 nM; IC50 (HLA-A*02:02; source organism: SARS-CoV1): 66 nM; IC50 (HLA-A*02:01 [1]; source organism: SARS-CoV1): 271 nM; IC50 (HLA-A*68:02; source organism: SARS-CoV1): 50100 nM
LLVAAGMEA											IC50 (HLA-A*02:03; source organism: SARS-CoV1): 17 nM; IC50 (HLA-A*02:06; source organism: SARS-CoV1): 117 nM; IC50 (HLA-A*02:02; source organism: SARS-CoV1): 17 nM; IC50 (HLA-A*02:01 [1]; source organism: SARS-CoV1): 51 nM; IC50 (HLA-A*68:02; source organism: SARS-CoV1): 19300 nM
FMLCLLLLSV	315	194	472	149	28100						
FLLALLSCI	7.3	15	8.7	2.4	≥ 70000						
KIKQTGINNV						3.1	2550	237	35900		IC50 (HLA-A*02:01 [2]): 7300 nM
MLVNGDDLVV	104	186	54	56	8980						
GIAIFNNRNL						2040	4720	5.1	11100	1330	
LLYFILFFV	323	504	227	164	23000						
FLDWIKDIM						297	162	0.78	26800	19	
AQMGTLLIA											IC50 (HLA-A*02:03; source organism: SARS-CoV1): 1.6 nM; IC50 (HLA-A*02:06; source organism: SARS-CoV1): 0.44 nM; IC50 (HLA-A*02:02; source organism: SARS-CoV1): 65 nM; IC50 (HLA-A*02:01 [1]; source organism: SARS-CoV1): 37 nM; IC50 (HLA-A*68:02; source organism: SARS-CoV1): 12200 nM
GMQFDKVYL						277	1900	13	17200	72	
RLLDLSSWFT	316	82	303	20	11100						
GAFMYTKHSM						458	3140	544	9600	2000	
RLHGLEAFSL	602	649	35	224	18500						
YLYGIGSAVV	3.5	285	12	39	5120						
ALEQYGIENT						2160	1270	3150	21800	1450	
